Among the data in PMC4081072, “Structure and semi-sequence-specific RNA binding of Nrd1” are Kd values, retold here.

Data set [1] deals with T1, Nrd1 307-491 WT (Saccharomyces cerevisiae, UniProt P53617 307-491).
T1 sequence: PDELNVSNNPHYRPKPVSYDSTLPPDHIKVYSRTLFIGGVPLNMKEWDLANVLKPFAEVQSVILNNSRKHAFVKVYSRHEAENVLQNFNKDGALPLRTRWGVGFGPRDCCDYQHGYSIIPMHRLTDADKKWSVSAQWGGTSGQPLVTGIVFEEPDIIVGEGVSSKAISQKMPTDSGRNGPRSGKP
Put plainly: fluorescence anisotropy; FA: 10 nM RNA, 50 mM sodium phosphate pH 8, 150 mM NaCl, 10 mM beta-mercaptoethanol, 20 C (protein stock in 300 mM NaCl); NMR: same buffer with 300 mM NaCl, 20. To be noted: protein: recombinant, tags: C-terminal His6. In general terms: Fluorescence polarisation rises when a labelled molecule tumbles more slowly, as on binding a larger partner.

Data set [2] concerns the target T1, Nrd1 307-491 WT. Put plainly: fluorescence anisotropy; prolonged incubation between aliquots; FA: 10 nM RNA, 50 mM sodium phosphate pH 8, 150 mM NaCl, 10 mM beta-mercaptoethanol, 20 C (protein stock in 300 mM NaCl); NMR: same buffer with 300 mM NaCl, 20. To be noted: protein: recombinant; tags: C-terminal His6; label: 5' fluorescein or TAMRA (FA); unlabeled (NMR); may form quadruplex when free.

Data set [3] has as its target T2, Nrd1 307-491 H376A (Saccharomyces cerevisiae, UniProt P53617 307-491, H376A).
T2 sequence: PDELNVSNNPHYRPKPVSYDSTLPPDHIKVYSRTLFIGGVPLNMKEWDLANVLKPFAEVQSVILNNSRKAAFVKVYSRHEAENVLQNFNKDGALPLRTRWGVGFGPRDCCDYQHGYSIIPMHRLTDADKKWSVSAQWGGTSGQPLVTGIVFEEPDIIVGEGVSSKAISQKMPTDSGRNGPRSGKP
Kind of data set: fluorescence anisotropy; FA: 10 nM RNA, 50 mM sodium phosphate pH 8, 150 mM NaCl, 10 mM beta-mercaptoethanol, 20 C (protein stock in 300 mM NaCl); NMR: same buffer with 300 mM NaCl, 20. The note with it: protein: recombinant; tags: C-terminal His6; label: 5' fluorescein or TAMRA (FA); unlabeled (NMR).

Data set [4] addresses T3, Nrd1 307-491 D417A (Saccharomyces cerevisiae, UniProt P53617 307-491, D417A).
T3 sequence: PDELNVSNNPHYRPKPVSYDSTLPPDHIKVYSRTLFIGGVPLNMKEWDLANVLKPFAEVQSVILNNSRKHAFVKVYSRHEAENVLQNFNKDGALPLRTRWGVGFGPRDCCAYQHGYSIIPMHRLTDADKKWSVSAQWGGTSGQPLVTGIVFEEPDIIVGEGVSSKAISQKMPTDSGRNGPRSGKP
The description is as above. The note with it: protein: recombinant; tags: C-terminal His6; label: 5' fluorescein or TAMRA (FA); unlabeled (NMR).

The target of data set [5] is T4, Nrd1 307-491 R429D (Saccharomyces cerevisiae, UniProt P53617 307-491, R429D).
T4 sequence: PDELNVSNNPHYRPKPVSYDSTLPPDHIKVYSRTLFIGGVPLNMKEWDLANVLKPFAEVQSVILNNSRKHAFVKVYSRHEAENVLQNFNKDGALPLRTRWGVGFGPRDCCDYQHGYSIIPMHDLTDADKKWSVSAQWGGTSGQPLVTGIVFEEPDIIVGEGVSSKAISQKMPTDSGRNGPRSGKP
The description is as above. To be noted: protein: recombinant; tags: C-terminal His6; label: 5' fluorescein or TAMRA (FA); unlabeled (NMR).

The target of data set [6] is T5, Nrd1 307-491 F342A (Saccharomyces cerevisiae, UniProt P53617 307-491, F342A).
T5 sequence: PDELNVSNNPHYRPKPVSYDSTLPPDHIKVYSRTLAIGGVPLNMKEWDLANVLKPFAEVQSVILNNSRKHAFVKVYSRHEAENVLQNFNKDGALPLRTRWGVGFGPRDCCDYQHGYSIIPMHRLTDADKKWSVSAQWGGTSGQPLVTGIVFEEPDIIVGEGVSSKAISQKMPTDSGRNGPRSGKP
Described as above. To be noted: protein: recombinant; tags: C-terminal His6; label: 5' fluorescein or TAMRA (FA); unlabeled (NMR).

Data set [7] addresses T6, Nrd1 307-491 T431R (Saccharomyces cerevisiae, UniProt P53617 307-491, T431R).
T6 sequence: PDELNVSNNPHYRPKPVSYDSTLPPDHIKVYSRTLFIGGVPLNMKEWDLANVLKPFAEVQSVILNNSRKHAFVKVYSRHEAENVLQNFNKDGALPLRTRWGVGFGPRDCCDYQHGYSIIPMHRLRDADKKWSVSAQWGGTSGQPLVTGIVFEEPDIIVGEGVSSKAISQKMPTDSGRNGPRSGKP
The data set is described as above. The note with it: protein: recombinant; tags: C-terminal His6; label: 5' fluorescein or TAMRA (FA); unlabeled (NMR).

Data set [8] addresses T7, Nrd1 307-491 F378A (Saccharomyces cerevisiae, UniProt P53617 307-491, F378A).
T7 sequence: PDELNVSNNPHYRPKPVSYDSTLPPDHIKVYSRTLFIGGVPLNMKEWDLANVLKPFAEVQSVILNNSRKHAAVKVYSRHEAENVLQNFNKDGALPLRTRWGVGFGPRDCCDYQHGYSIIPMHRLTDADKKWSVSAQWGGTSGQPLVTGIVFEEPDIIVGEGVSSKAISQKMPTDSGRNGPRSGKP
The description is as above. The note with it: protein: recombinant; tags: C-terminal His6; label: 5' fluorescein or TAMRA (FA); unlabeled (NMR).

Data set [9] has as its target T8, Nrd1 307-491 G409A (Saccharomyces cerevisiae, UniProt P53617 307-491, G409A).
T8 sequence: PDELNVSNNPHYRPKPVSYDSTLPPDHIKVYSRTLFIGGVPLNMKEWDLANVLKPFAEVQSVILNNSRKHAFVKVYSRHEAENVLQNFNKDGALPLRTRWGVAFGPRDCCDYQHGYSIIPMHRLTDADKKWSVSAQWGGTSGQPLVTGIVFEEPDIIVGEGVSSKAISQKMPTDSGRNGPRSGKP
The data set is described as above. To be noted: protein: recombinant; tags: C-terminal His6; label: 5' fluorescein or TAMRA (FA); unlabeled (NMR).

Data set [10] has as its target T9, Nrd1 307-491 K435D (Saccharomyces cerevisiae, UniProt P53617 307-491, K435D).
T9 sequence: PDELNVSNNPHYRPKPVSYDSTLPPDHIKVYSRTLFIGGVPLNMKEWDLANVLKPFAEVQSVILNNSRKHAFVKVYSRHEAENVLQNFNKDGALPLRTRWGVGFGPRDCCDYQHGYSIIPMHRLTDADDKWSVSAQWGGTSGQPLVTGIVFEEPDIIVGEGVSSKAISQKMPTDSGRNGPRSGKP
The description is as above. The note with it: protein: recombinant; tags: C-terminal His6; label: 5' fluorescein or TAMRA (FA); unlabeled (NMR).

Consider GCGGGCG (ssRNA), for which the Kd in data set [1] (label: 5' fluorescein or TAMRA) was 13.2 ± 0.5 µM.

Take CAGCGUC (ssRNA): the equilibrium dissociation constant (Kd) in data set [1] (label: 5' fluorescein or TAMRA) stood at 37.7 ± 1.1 µM.

Take GGGGGGG (ssRNA) [G7]: the Kd in data set [2] was 5.7 ± 1.2 µM.

Regarding GUAAUGAAUUAAGUCUUGAUAUAUAA (ssRNA) [win78wt], the Kd in [1] (label: 5' fluorescein or TAMRA) is 1.5 ± 0.1 µM.

For the molecule GUUGUUG (ssRNA), the Kd in [1] (label: 5' fluorescein or TAMRA) was determined as 13 ± 0.7 µM.

Regarding AAAAAAA (ssRNA) [A7], the Kd in data set [1] (label: 5' fluorescein or TAMRA) was 32.1 ± 0.9 µM.

Regarding UUUUUUU (ssRNA) [U7], the equilibrium dissociation constant (Kd) in data set [1] (label: 5' fluorescein or TAMRA) was 69.8 ± 3.2 µM.

In the case of AGCGUGAAUUAAGUCUUGCACACACA (ssRNA) [win78dNrd1dAUrichCA], the Kd in [1] (label: 5' fluorescein or TAMRA) turned out to be 5.4 ± 0.2 µM.

For CCCCUGAAUUAAGCCCCCCCCCCCCC (ssRNA) [win78polyC], the Kd in [1] (label: 5' fluorescein or TAMRA) was 7.2 ± 0.5 µM.

Take CACACAC (ssRNA): in data set [1] (label: 5' fluorescein or TAMRA), the Kd stood at 108 ± 4 µM.

As for AUAUAUA (ssRNA), the Kd in [1] (label: 5' fluorescein or TAMRA) turned out to be 11.3 ± 0.5 µM.

In the case of AGCGUGAAUUAAGUCUUGAUAUAUAA (ssRNA) [win78dNrd1], the Kd in data set [1] (label: 5' fluorescein or TAMRA) was determined as 2.5 ± 0.2 µM.

In the case of UCUUG (ssRNA), the Kd in data set [1] (label: 5' fluorescein or TAMRA) worked out at 41.1 ± 2.7 µM.

Consider UGGUGGU (ssRNA), for which the equilibrium dissociation constant (Kd) in data set [1] (label: 5' fluorescein or TAMRA) turned out to be 6.8 ± 0.6 µM.

As to AUUAUUA (ssRNA), in data set [1] (label: 5' fluorescein or TAMRA), the Kd stood at 14.8 ± 0.4 µM.

On to GCGGGGC (ssRNA), for which the Kd worked out at 37.5 ± 3.7 µM in data set [3]; 31.7 ± 6 µM in [4]; 9.8 ± 0.3 µM in [1] (label: 5' fluorescein or TAMRA (FA), unlabeled (NMR)); 60.1 ± 3.5 µM in [5]; 29.5 ± 4 µM in [6]; 48 ± 2.9 µM in data set [7]. The dissociation constant (Kd) in data set [8] stood at 73.4 ± 10.7 µM; in data set [9] it was 30.3 ± 3.9 µM; in data set [10], 50.5 ± 10.8 µM.

For the molecule UGGA (ssRNA), the Kd in [1] (label: 5' fluorescein or TAMRA) was determined as 94.1 ± 3.9 µM.

Regarding AGCGUGAAUUAAGAGCGUAUAUAUAA (ssRNA) [win78dNrd1dNab3], the Kd in data set [1] (label: 5' fluorescein or TAMRA) came to 7.9 ± 0.3 µM.

What is called Kd is a measure of binding affinity in units of concentration.
